{"source": "patent US20250236663A1", "about": "(NEURACLE SCIENCE, published 2025)", "binders": {"B1": {"name": "chimeric anti-FAM19A5-IgG2/4 monoclonal antibody (1-65) (antibody, V domains shown)", "VH": "AVTLDESGGGLQTPGGALSLVCKASGFTFSSYQMGWVRQAPGKGLEWVGVINKSGSDTSYGSAVKGRATISRDNGQSTVRLQLNNLRAEDTGTYFCAKGSASYITAATIDAWGHGTEVIVSS", "VL": "ALTQPSSVSANPGETVKITCSGGGSSGYGYGWYQQKSPSSAPLTVIYWNDKRPSDIPSRFSGSKSGSTHTLTITGVQAEDEAVYFCGNDDYSSDSGYVGVFGAGTTLTVL", "notes": "Chicken-derived variable domains; also called anti-FAM19A5 antibody 1-65; Anti-FAM19A5 (1-65)"}}, "key": {"[1]": {"biological_target": "T1, FAM19A5 fragment 5 mutant peptide F5-5 (#5) (human)", "T1 construct": "The entry already carries the alanine substitution and Ser for Cys; also called mutant peptide #5", "T1 peptide": "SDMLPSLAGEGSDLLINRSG", "assay": "ELISA on the coated F5 mutant peptide", "protocol": "(§1) Overlapping peptide fragments (F1-F6, see FIG. 9) of the human FAM19A5 protein were synthesized and conjugated to BSA. Binding of the different anti-FAM19A5 antibodies to the BSA-conjugated peptide fragments F1-F6 was determined by Western blot analysis or ELISA assay. For the Western blot analysis, BSA-conjugated FAM19A5 fragments F1-F6 were separated by SDS polyacrylamide gel electrophoresis and transferred to a nitrocellulose membrane by the standard procedure. The membrane was incubated with the anti-FAM19A5 antibody (e.g., 1-65, 2 μg/ml, 1-65-scFv-rabbit Fc-SSS), and the antigen-antibody complexes were detected with the appropriate secondary antibody conjugated with horse-radish peroxidase (anti-rabbit IgG (Fc specific)-HRP, 1:4000 dilution). For the ELISA assay, the following protocol was used. FAM19A5 fragment F1-F6 (diluted to 1 μg/mL in 50 mM carbonate buffer (Biosesang) or to 20 μg/mL for high concentration analysis) were used to coat the wells of 96-well immuno plates (Thermo Scientific) (100 μL/well) overnight at 4° C. and then subsequently washed twice in 1×PBS. The plates were then blocked with the blocking buffer (100 μL/well) for 1 hour at room temperature. During the 1-hour incubation, the relevant anti-FAM19A5 antibodies were diluted to 1 μg/mL (or 20 μg/mL for high concentration analysis) in the diluent buffer. Once the plates were washed (2× using 1×PBS), the diluted anti-FAM19A5 antibodies were added to the appropriate wells, and the plates were incubated at room temperature for 1 hour. The plates were subsequently washed for a total of five times using the washing buffer. Next, the ODP substrate (prepared by dissolving one ODP tablet (O-phenylenediamine Dihydrochloride, Thermo) into 9 mL of sterilized deionized water and 1 mL of 10× stable Peroxide Stable buffer (Theromo)) was added to each of the wells, and the color change reaction was allowed to occur for 10 minutes. This reaction was stopped by adding 100 μL of 2N H2SO4 (Daejung) to the wells. The absorption value of each of the wells was detected at 492 nm using a 96-well microplate reader (Molecular Device).\n(§2) Next, to identify the specific amino acid residues within the epitope fragment F5 that the 1-65 and P2-C12 antibodies bind to, different amino acid residues of the F5 fragment were replaced with alanine as shown in Table 9 (below)."}, "[2]": {"biological_target": "T2, FAM19A5 fragment 5 mutant peptide F5-1 (#1) (human)", "T2 construct": "The entry already carries the alanine substitution and Ser for Cys; also called mutant peptide #1", "T2 peptide": "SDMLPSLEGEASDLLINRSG", "assay": "ELISA on the coated F5 mutant peptide", "protocol": "as §1, §2"}, "[3]": {"biological_target": "T3, FAM19A5 fragment 5 mutant peptide F5-2 (#2) (human)", "T3 construct": "The entry already carries the alanine substitution and Ser for Cys; also called mutant peptide #2", "T3 sequence (peptide, as listed by the source mutant)": "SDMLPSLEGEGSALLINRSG", "assay": "ELISA on the coated F5 mutant peptide", "protocol": "as §1, §2"}, "[4]": {"biological_target": "T4, FAM19A5 fragment 5 mutant peptide F5-3 (#3) (human)", "T4 construct": "The entry already carries the alanine substitution and Ser for Cys; also called mutant peptide #3", "T4 sequence (peptide, as listed by the source mutant)": "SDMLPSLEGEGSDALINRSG", "assay": "ELISA on the coated F5 mutant peptide", "protocol": "as §1, §2"}, "[5]": {"biological_target": "T5, FAM19A5 fragment 5 mutant peptide F5-8 (#8) (human)", "T5 construct": "The entry already carries the alanine substitution and Ser for Cys; also called mutant peptide #8", "T5 peptide": "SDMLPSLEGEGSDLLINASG", "assay": "ELISA on the coated F5 mutant peptide", "protocol": "as §1, §2"}, "[6]": {"biological_target": "T6, FAM19A5 fragment 5 mutant peptide F5-4 (#4) (human)", "T6 construct": "The entry already carries the alanine substitution and Ser for Cys; also called mutant peptide #4", "T6 sequence (peptide, as listed by the source mutant)": "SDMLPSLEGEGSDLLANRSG", "assay": "ELISA on the coated F5 mutant peptide", "protocol": "as §1, §2"}, "[7]": {"biological_target": "T7, FAM19A5 fragment 5 mutant peptide F5-7 (#7) (human)", "T7 construct": "The entry already carries the alanine substitution and Ser for Cys; also called mutant peptide #7", "T7 sequence (peptide, as listed by the source mutant)": "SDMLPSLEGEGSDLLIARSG", "assay": "ELISA on the coated F5 mutant peptide", "protocol": "as §1, §2"}, "[8]": {"biological_target": "T8, FAM19A5 fragment 5 mutant peptide F5-6 (#6) (human)", "T8 construct": "The entry already carries the alanine substitution and Ser for Cys; also called mutant peptide #6", "T8 sequence (peptide, as listed by the source mutant)": "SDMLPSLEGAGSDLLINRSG", "assay": "ELISA on the coated F5 mutant peptide", "protocol": "as §1, §2"}, "[9]": {"biological_target": "T9, FAM19A5 mutant M7 (human)", "T9 construct": "FAM19A5 with region 7 replaced by the consensus of FAM19A1-4; The entry already carries the changes", "T9 chain": "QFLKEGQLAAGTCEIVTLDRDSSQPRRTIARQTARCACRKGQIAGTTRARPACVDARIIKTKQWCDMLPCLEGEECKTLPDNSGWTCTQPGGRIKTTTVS", "assay": "ELISA on phage-displayed FAM19A5 mutants; y axis without label"}, "[10]": {"biological_target": "T10, FAM19A5 mutant M6 (human)", "T10 construct": "FAM19A5 with region 6 replaced by the consensus of FAM19A1-4; The entry already carries the changes", "T10 chain": "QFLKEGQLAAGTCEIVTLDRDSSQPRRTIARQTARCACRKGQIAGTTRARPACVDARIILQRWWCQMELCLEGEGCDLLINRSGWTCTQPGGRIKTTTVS", "assay": "ELISA on phage-displayed FAM19A5 mutants; y axis without label"}, "[11]": {"biological_target": "T11, FAM19A5 mutant M8 (human)", "T11 construct": "FAM19A5 with region 8 replaced by the consensus of FAM19A1-4; The entry already carries the changes", "T11 chain": "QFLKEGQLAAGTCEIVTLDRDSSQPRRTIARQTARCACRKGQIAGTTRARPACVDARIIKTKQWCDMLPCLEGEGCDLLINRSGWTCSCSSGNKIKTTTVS", "assay": "ELISA on phage-displayed FAM19A5 mutants; y axis without label"}}}
{"binder": "B1", "values": [{"measurement": "O.D (492nm)", "setting": "[1]", "value": 1.57}, {"measurement": "O.D (492nm)", "setting": "[2]", "value": 1.5}, {"measurement": "O.D (492nm)", "setting": "[3]", "value": 0.155}, {"measurement": "binding result", "setting": "[3]", "value": "no binding"}, {"measurement": "O.D (492nm)", "setting": "[4]", "value": 0.15}, {"measurement": "binding result", "setting": "[4]", "value": "no binding"}, {"measurement": "O.D (492nm)", "setting": "[5]", "value": 0.181}, {"measurement": "binding result", "setting": "[5]", "value": "no binding"}, {"measurement": "O.D (492nm)", "setting": "[6]", "value": 0.688}, {"measurement": "O.D (492nm)", "setting": "[7]", "value": 1.64}, {"measurement": "O.D (492nm)", "setting": "[8]", "value": 1.41}, {"measurement": "binding result", "setting": "[9]", "value": "no binding"}, {"measurement": "binding result", "setting": "[10]", "value": "no binding"}, {"measurement": "binding result", "setting": "[11]", "value": "no binding"}]}
